Source: patent publication US20210147570A1

Assays:
[1] = target: human CD73 (cell-surface) (human) (UniProt P21589); assay: cell-based or functional assay
[2] = target: human CD73 (cell-surface) (human) (UniProt P21589); assay: CD73 binding in cell lines (human), EC50 range; method not stated
[3] = target: human CD73 (cell-surface) (human) (UniProt P21589); assay: CD73 binding in cell lines (human), median EC50; method not stated

Sequence of human CD73 (cell-surface) (human) (P21589 27-549): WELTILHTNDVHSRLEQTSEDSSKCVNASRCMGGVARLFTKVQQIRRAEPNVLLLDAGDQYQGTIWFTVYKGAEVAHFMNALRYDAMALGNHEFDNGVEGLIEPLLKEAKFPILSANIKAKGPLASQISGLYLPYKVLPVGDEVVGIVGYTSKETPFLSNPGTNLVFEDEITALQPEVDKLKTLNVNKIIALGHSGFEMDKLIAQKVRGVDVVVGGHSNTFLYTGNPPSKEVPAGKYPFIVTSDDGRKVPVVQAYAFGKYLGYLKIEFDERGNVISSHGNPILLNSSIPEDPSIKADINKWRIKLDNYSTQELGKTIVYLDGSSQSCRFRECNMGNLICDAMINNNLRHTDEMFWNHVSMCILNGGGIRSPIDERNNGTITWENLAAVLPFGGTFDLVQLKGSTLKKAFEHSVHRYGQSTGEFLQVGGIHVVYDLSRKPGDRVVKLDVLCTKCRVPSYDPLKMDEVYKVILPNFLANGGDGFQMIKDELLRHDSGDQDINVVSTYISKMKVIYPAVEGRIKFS

Cellular Enzyme Inhibition (blockade of AMP processing), median EC50 [1]: 0.39 nM
Internalization, max level [1]: 97.5%
Internalization, median EC50 [1]: 1.2 nM
EC50 [2]: 0.3 to 0.67 nM
EC50 [3]: 0.5 nM
B1: CD73.4-IgG2C219S.IgG1.1f (antibody, V domains shown)
VH: QVQLVESGGGVVQPGRSLRLSCAASGFTFSNYGMHWVRQAPGKGLEWVAVILYDGSNKYYPDSVKGRFTISRDNSKNTLYLQMNSLRAEDTAVYYCARGGSSWYPDSFDIWGQGTMVTVSS
VL: DIQMTQSPSSLSASVGDRVTITCRASQGISSWLAWYQQKPEKAPKSLIYAASSLQSGVPSRFSGSGSGTDFTLTISSLQPEDFATYYCQQYNSYPLTFGGGTKVEIKR
